According to IntAct's records for PubMed 28017832:

B1: Vacuolar protein sorting-associated protein 33B (Homo sapiens), Q9H267 (parent)
chain: MAFPHRPDAPELPDFSMLKRLARDQLIYLLEQLPGKKDLFIEADLMSPLDRIANVSILKQHEVDKLYKVENKPALSSNEQLCFLVRPRIKNMRYIASLVNADKLAGRTRKYKVIFSPQKFYACEMVLEEEGIYGDVSCDEWAFSLLPLDVDLLSMELPEFFRDYFLEGDQRWINTVAQALHLLSTLYGPFPNCYGIGRCAKMAYELWRNLEEEEDGETKGRRPEIGHIFLLDRDVDFVTALCSQVVYEGLVDDTFRIKCGSVDFGPEVTSSDKSLKVLLNAEDKVFNEIRNEHFSNVFGFLSQKARNLQAQYDRRRGMDIKQMKNFVSQELKGLKQEHRLLSLHIGACESIMKKKTKQDFQELIKTEHALLEGFNIRESTSYIEEHIDRQVSPIESLRLMCLLSITENGLIPKDYRSLKTQYLQSYGPEHLLTFSNLRRAGLLTEQAPGDTLTAVESKVSKLVTDKAAGKITDAFSSLAKRSNFRAISKKLNLIPRVDGEYDLKVPRDMAYVFGGAYVPLSCRIIEQVLERRSWQGLDEVVRLLNCSDFAFTDMTKEDKASSESLRLILVVFLGGCTFSEISALRFLGREKGYRFIFLTTAVTNSARLMEAMSEVKA
partner: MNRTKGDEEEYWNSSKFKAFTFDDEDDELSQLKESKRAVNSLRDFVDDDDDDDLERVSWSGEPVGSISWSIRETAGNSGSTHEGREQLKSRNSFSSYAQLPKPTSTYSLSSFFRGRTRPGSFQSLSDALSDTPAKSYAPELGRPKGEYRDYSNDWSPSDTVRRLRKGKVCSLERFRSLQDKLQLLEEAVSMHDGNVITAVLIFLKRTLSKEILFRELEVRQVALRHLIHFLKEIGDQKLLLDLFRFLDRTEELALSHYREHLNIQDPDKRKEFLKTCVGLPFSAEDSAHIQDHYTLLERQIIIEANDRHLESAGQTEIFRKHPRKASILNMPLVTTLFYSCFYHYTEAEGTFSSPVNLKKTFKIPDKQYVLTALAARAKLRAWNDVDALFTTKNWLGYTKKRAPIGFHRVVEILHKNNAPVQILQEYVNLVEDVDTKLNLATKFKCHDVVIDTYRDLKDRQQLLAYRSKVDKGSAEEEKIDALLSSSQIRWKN

Variants of: B1
Settings: with spe39_human VIPAS39, Q9H9C1

effect of a mutation on the interaction | Variant
decreasing interaction strength | G131E
